Values joined by “and” are separate entries in the source; they are usually repeats but may differ in a detail not shown here. Equal values may be shown once. Read-outs that look alike come from different tables or passages of the source. Blank lines part the entries; values can stand above or below the binder they belong to.
Columns and labels:
[1] = target: the molecule itself; test: mass photometry
[2] = target: the molecule itself
[3] = target: the molecule itself; test: crystal structure
[4] = target: T1, mCherry-tagged full-length Spindly (^mChSpindly^FL) (human), Q96EA4; test: mass photometry; details: remark: other sources report otherwise
T1 chain: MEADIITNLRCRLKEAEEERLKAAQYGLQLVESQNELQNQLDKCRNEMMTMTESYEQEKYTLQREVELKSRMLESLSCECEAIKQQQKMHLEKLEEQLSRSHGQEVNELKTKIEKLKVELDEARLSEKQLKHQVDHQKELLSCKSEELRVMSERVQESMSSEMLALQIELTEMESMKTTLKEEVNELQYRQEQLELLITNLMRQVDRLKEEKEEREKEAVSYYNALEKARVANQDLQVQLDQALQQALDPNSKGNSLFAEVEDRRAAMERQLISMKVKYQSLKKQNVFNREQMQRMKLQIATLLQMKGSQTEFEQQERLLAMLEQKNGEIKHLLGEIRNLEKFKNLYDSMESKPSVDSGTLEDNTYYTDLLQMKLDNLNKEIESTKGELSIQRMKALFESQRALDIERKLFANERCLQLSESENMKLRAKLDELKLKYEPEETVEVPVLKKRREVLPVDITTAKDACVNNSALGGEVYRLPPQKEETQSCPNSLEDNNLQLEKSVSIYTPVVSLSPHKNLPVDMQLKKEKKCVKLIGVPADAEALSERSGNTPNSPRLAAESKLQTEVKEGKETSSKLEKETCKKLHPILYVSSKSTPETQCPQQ

[5] = target: T2, Spindly^250-605 (human, UniProt Q96EA4 250-605); test: SEC
T2 sequence: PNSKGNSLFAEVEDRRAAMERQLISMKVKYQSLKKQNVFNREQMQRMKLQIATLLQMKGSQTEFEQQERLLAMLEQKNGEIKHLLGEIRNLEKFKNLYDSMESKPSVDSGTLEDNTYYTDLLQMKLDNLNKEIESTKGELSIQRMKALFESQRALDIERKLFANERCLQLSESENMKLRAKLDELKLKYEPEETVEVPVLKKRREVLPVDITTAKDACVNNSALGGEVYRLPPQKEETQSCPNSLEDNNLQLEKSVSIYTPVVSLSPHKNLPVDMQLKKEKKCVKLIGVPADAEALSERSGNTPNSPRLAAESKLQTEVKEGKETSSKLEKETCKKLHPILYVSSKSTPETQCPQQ

B1: ^mChSpindly^76-605 (domain or fragment)
chain: LSCECEAIKQQQKMHLEKLEEQLSRSHGQEVNELKTKIEKLKVELDEARLSEKQLKHQVDHQKELLSCKSEELRVMSERVQESMSSEMLALQIELTEMESMKTTLKEEVNELQYRQEQLELLITNLMRQVDRLKEEKEEREKEAVSYYNALEKARVANQDLQVQLDQALQQALDPNSKGNSLFAEVEDRRAAMERQLISMKVKYQSLKKQNVFNREQMQRMKLQIATLLQMKGSQTEFEQQERLLAMLEQKNGEIKHLLGEIRNLEKFKNLYDSMESKPSVDSGTLEDNTYYTDLLQMKLDNLNKEIESTKGELSIQRMKALFESQRALDIERKLFANERCLQLSESENMKLRAKLDELKLKYEPEETVEVPVLKKRREVLPVDITTAKDACVNNSALGGEVYRLPPQKEETQSCPNSLEDNNLQLEKSVSIYTPVVSLSPHKNLPVDMQLKKEKKCVKLIGVPADAEALSERSGNTPNSPRLAAESKLQTEVKEGKETSSKLEKETCKKLHPILYVSSKSTPETQCPQQ
stoichiometry N [1]: 2

B2: ^mChSpindly^Δ276-306 (natural protein)
chain: MEADIITNLRCRLKEAEEERLKAAQYGLQLVESQNELQNQLDKCRNEMMTMTESYEQEKYTLQREVELKSRMLESLSCECEAIKQQQKMHLEKLEEQLSRSHGQEVNELKTKIEKLKVELDEARLSEKQLKHQVDHQKELLSCKSEELRVMSERVQESMSSEMLALQIELTEMESMKTTLKEEVNELQYRQEQLELLITNLMRQVDRLKEEKEEREKEAVSYYNALEKARVANQDLQVQLDQALQQALDPNSKGNSLFAEVEDRRAAMERQLISMKGSQTEFEQQERLLAMLEQKNGEIKHLLGEIRNLEKFKNLYDSMESKPSVDSGTLEDNTYYTDLLQMKLDNLNKEIESTKGELSIQRMKALFESQRALDIERKLFANERCLQLSESENMKLRAKLDELKLKYEPEETVEVPVLKKRREVLPVDITTAKDACVNNSALGGEVYRLPPQKEETQSCPNSLEDNNLQLEKSVSIYTPVVSLSPHKNLPVDMQLKKEKKCVKLIGVPADAEALSERSGNTPNSPRLAAESKLQTEVKEGKETSSKLEKETCKKLHPILYVSSKSTPETQCPQQ
stoichiometry N [2]: 2 and 4

B3: Spindly^1-100 (domain or fragment)
chain: MEADIITNLRCRLKEAEEERLKAAQYGLQLVESQNELQNQLDKCRNEMMTMTESYEQEKYTLQREVELKSRMLESLSCECEAIKQQQKMHLEKLEEQLSR
stoichiometry N [3]: 2

stoichiometry N [4]: 2
B4: mCherry-tagged full-length Spindly (^mChSpindly^FL), Q96EA4 1-605 (natural protein)
chain: T1 chain

B5: ^mChSpindly^ΔRV (natural protein)
chain: MEADIITNLRCRLKEAEEERLKAAQYGLQLVESQNELQNQLDKCRNEMMTMTESYEQEKYTLQREVELKSRMLESLSCECEAIKQQQKMHLEKLEEQLSRSHGQEVNELKTKIEKLKVELDEARLSEKQLKHQVDHQKELLSCKSEELRVMSEQESMSSEMLALQIELTEMESMKTTLKEEVNELQYRQEQLELLITNLMRQVDRLKEEKEEREKEAVSYYNALEKARVANQDLQVQLDQALQQALDPNSKGNSLFAEVEDRRAAMERQLISMKVKYQSLKKQNVFNREQMQRMKLQIATLLQMKGSQTEFEQQERLLAMLEQKNGEIKHLLGEIRNLEKFKNLYDSMESKPSVDSGTLEDNTYYTDLLQMKLDNLNKEIESTKGELSIQRMKALFESQRALDIERKLFANERCLQLSESENMKLRAKLDELKLKYEPEETVEVPVLKKRREVLPVDITTAKDACVNNSALGGEVYRLPPQKEETQSCPNSLEDNNLQLEKSVSIYTPVVSLSPHKNLPVDMQLKKEKKCVKLIGVPADAEALSERSGNTPNSPRLAAESKLQTEVKEGKETSSKLEKETCKKLHPILYVSSKSTPETQCPQQ
stoichiometry N [1]: 2

binding result [5]: binds
B6: Spindly^1-250 (domain or fragment)
chain: MEADIITNLRCRLKEAEEERLKAAQYGLQLVESQNELQNQLDKCRNEMMTMTESYEQEKYTLQREVELKSRMLESLSCECEAIKQQQKMHLEKLEEQLSRSHGQEVNELKTKIEKLKVELDEARLSEKQLKHQVDHQKELLSCKSEELRVMSERVQESMSSEMLALQIELTEMESMKTTLKEEVNELQYRQEQLELLITNLMRQVDRLKEEKEEREKEAVSYYNALEKARVANQDLQVQLDQALQQALDP

B7: Spindly^1-275 (domain or fragment)
chain: MEADIITNLRCRLKEAEEERLKAAQYGLQLVESQNELQNQLDKCRNEMMTMTESYEQEKYTLQREVELKSRMLESLSCECEAIKQQQKMHLEKLEEQLSRSHGQEVNELKTKIEKLKVELDEARLSEKQLKHQVDHQKELLSCKSEELRVMSERVQESMSSEMLALQIELTEMESMKTTLKEEVNELQYRQEQLELLITNLMRQVDRLKEEKEEREKEAVSYYNALEKARVANQDLQVQLDQALQQALDPNSKGNSLFAEVEDRRAAMERQLISM
stoichiometry N [2]: 2 and 4

Reference: paper doi:10.1101/2022.02.02.478874 (bioRxiv, 2022)
